{"source": "paper PMC9646986", "about": "“A sandwich-like configuration with a signal amplification strategy using a methylene blue/aptamer complex on a heterojunction 2D MoSe2/2D WSe2 electrode: Toward a portable and sensitive electrochemica”", "biological_target": "T1, alpha-fetoprotein (AFP) (UniProt P02771 19-609)", "T1 sequence": "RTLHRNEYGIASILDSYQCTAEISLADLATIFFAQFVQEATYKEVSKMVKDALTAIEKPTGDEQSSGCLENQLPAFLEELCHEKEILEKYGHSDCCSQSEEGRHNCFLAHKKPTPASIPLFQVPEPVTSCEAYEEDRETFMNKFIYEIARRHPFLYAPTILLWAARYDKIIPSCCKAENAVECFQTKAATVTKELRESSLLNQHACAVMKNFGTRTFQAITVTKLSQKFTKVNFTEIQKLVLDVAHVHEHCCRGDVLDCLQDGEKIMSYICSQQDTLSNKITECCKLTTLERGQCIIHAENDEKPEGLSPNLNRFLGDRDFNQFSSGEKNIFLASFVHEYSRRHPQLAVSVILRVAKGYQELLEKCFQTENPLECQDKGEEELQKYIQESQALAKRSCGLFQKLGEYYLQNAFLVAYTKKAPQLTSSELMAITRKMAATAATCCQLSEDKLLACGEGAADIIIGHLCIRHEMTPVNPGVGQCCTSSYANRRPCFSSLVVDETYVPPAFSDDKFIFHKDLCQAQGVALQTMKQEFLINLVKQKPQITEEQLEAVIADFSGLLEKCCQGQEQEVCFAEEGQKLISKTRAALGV", "experiment": "electrochemical sandwich assay (DPV, methylene blue read-out); AFP 50 ng/ml captured by anti-AFP; aptamer 10 uM; MB 10 mM; DPV in 0.010 M PBS pH 7.4 (performance section prints 0.0010 M); aptamer 10 uM, 40 min; temperature not given", "conditions": "protein: commercial", "data": [{"binder": "GTGACGCTCCTAACGCTGACTCAGGTGCAGTTCTCGACTCGGTCTT (ssDNA)", "note": "[AFP aptamer]", "values": [{"measurement": "binding result", "result": "binds"}]}]}
